Experiment [1] has as its target T1, human FcγR1A (human, UniProt P12314 16-288).
T1 construct: also called recombinant human FcγR1A
The experiment is described as follows: SPR summary table, row group FcγR1A.

In experiment [2] the target is T2, neonatal receptor FcRn (human, UniProt P55899 24-297; P61769 21-119).
T2 construct: also called recombinant human FcRn
As to the kind of experiment: SPR summary table, row group FcRn.

Experiment [3] addresses polyhistidine-tagged recombinant human CD47 (human) (UniProt Q08722). The experiment is described as follows: SPR summary table, row group CD47.
In experiment [4] the target is T3, human OX40 on cells (Jurkat/hOX40, activated human T cells) (human, UniProt P43489 29-277).
T3 construct: whole, on cells; also called Jurkat/OX40; cell surface expressed OX40
T3 sequence (looked up): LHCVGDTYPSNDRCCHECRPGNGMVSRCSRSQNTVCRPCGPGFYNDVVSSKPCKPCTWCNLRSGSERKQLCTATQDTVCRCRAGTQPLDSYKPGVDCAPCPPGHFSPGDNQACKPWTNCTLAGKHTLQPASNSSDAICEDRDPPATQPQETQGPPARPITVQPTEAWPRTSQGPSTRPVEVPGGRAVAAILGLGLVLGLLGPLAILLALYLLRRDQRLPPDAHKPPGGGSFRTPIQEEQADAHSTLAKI
As to the kind of experiment: flow cytometry, Jurkat-hOX40 against parental Jurkat cells, Fc-Fusions: PE-A. For orientation: Flow cytometry measures light scatter and fluorescence of single cells or particles in a stream.

The next experiment addresses T4, mouse PD-1-Fc (mouse, UniProt Q02242 25-169; P01868 98-324 = IgG part, limits assumed).
T4 construct: extracellular domain;domain: Fc; Control construct, tested as CHO-K1 culture medium; also called mPD-1-Fc; recombinant mouse PD1-Fc
As to the kind of experiment: ELISA: plate-bound mOX40-hFc, two-fold dilutions of CHO-K1 culture medium, detection with rabbit anti-mPD-1 and anti-rabbit IgG-HRP. The text has this: A rabbit polyclonal antibody to mPD-1 was used to detect the mPD-1 domain in the chimeric protein and subsequently detected using a horseradish peroxidase (HRP)-conjugated polyclonal antibody to rabbit IgG (H+L).
A rabbit polyclonal antibody to mPD-1 was used to detect the mPD-1 domain in the chimeric protein and subsequently detected using a horseradish peroxidase (HRP)-conjugated polyclonal antibody to rabbit IgG (H+L). […] A horseradish peroxidase (HRP)-conjugated polyclonal antibody to mouse IgG (H+L) was used for the detection of the bound proteins.

Experiment [5] has as its target human PD-L1 on cells (CHO-K1/hPD-L1, HCC827, PC3, HeLa-PD-L1) (human, UniProt Q9NZQ7 19-290). The experiment is described as follows: cell-based or functional assay.
A further experiment has as its target T5, FcγR2B (human, UniProt P31994 46-217, limits assumed).
T5 sequence (looked up): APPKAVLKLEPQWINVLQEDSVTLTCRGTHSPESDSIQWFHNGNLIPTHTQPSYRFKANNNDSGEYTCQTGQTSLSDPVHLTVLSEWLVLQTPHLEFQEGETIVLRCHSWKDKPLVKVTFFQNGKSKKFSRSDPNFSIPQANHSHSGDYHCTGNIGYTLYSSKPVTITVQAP
The experiment is described as follows: SPR, chip-bound Fc receptor.

Experiment [6] addresses T2, neonatal receptor FcRn. The experiment is described as follows: SPR, chip-bound Fc receptor. (Surface plasmon resonance follows binding to a sensor surface in real time, without labels.)
In experiment [7] the target is T6, polyhistidine-tagged recombinant human OX40 (human, UniProt P43489 29-216).
T6 construct: also called recombinant OX40-his; hOX40-his; not shown: polyhistidine tag
T6 sequence (looked up): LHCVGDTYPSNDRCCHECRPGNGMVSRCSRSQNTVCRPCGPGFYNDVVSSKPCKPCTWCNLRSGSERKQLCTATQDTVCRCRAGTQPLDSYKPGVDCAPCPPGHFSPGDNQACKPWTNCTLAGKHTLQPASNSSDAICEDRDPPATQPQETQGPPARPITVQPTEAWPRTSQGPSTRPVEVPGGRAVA
As to the kind of experiment: SPR summary table, row group OX40. The text has this: (§1) Specifically, polyhistidine-tagged versions of recombinant human PD-L1, PD-L2 and human OX40 was bound to ProteOn HTG tris-NTA chips (BIORAD).

Experiment [8] deals with T7, polyhistidine-tagged recombinant human PD-L1 (human, UniProt Q9NZQ7 19-239).
T7 construct: also called hPD-L1; not shown: polyhistidine tag
T7 sequence (Q9NZQ7 19-239 limits assumed): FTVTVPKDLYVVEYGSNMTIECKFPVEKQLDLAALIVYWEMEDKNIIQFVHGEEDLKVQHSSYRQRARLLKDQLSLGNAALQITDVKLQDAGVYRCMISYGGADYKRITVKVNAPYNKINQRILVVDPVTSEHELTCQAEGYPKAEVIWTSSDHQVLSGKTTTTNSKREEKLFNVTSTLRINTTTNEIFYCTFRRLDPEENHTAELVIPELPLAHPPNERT
The experiment is described as follows: SPR summary table, row group PD-L1.
Excerpt: as §1

Experiment [9] concerns the target T8, polyhistidine-tagged recombinant human PD-L2 (human, UniProt Q9BQ51 20-219).
T8 construct: not shown: polyhistidine tag
T8 sequence (looked up): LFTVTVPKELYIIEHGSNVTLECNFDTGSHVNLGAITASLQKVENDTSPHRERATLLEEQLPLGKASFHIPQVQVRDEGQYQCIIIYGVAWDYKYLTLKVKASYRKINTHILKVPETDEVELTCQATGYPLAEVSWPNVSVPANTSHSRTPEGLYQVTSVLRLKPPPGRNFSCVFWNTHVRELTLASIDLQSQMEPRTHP
The experiment is described as follows: SPR summary table, row group PD-L2.
Excerpt: as §1

Experiment [10] has as its target T7, polyhistidine-tagged recombinant human …. The experiment is described as follows: SPR, his-tagged ligand on ProteOn HTG tris-NTA chip.
Excerpt: as §1
(§2) Specifically, polyhistidine-tagged versions of recombinant human CD47 and human OX40 was bound to ProteOn HTG tris-NTA chips (BIORAD).

The target of experiment [11] is T8, polyhistidine-tagged recombinant human …. The description is as above.
Excerpt: as §1, §2

Experiment [12] deals with T6, polyhistidine-tagged recombinant human …. The experiment is described as above.
Excerpt: as §1, §2

For experiment [13], the target named is T1, human FcγR1A. As to the kind of experiment: SPR, chip-bound human FcγR1A, analyte in flow.
Experiment [14] has as its target T2, neonatal receptor FcRn. The experiment is described as follows: SPR summary table, row group FcRn; the text gives 73 nM for this pair.
Experiment [15] has as its target T6, polyhistidine-tagged recombinant human …. The experiment is described as follows: SPR summary table, row group OX40.
Excerpt: as §1
This is another data set of the same source.

The target is the same in experiment [16]. As to the kind of experiment: SPR summary table, row group OX40.
Excerpt: as §2
The source holds these as a separate data set.

Where two headings read alike, the source gives them in different places.

Chain of polyhistidine-tagged recombinant human CD47 (human) (Q08722 19-139 limits assumed): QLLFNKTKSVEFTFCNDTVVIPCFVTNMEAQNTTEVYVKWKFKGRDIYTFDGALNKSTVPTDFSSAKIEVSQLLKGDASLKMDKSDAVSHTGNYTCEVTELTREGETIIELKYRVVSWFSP
T1 sequence (P12314 16-288 limits assumed): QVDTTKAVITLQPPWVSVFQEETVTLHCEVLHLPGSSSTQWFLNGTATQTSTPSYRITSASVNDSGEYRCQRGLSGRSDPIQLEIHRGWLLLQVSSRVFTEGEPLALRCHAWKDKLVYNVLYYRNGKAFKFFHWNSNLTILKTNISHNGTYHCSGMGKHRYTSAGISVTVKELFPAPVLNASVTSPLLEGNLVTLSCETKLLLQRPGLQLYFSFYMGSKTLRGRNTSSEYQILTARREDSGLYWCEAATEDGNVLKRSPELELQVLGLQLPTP
Chain of human PD-L1 on cells (CHO-K1/hPD-L1, HCC827, PC3, HeLa-PD-L1) (Q9NZQ7 19-290): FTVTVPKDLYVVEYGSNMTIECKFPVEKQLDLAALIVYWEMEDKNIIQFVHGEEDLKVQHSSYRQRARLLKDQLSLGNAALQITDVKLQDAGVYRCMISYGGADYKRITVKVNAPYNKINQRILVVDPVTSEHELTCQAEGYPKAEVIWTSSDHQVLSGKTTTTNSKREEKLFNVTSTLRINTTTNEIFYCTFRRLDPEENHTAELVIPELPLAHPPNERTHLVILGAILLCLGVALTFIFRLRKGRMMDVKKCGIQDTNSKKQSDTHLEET
T4 sequence (Q02242 other isoform, or with tags, fused parts or gaps limits assumed): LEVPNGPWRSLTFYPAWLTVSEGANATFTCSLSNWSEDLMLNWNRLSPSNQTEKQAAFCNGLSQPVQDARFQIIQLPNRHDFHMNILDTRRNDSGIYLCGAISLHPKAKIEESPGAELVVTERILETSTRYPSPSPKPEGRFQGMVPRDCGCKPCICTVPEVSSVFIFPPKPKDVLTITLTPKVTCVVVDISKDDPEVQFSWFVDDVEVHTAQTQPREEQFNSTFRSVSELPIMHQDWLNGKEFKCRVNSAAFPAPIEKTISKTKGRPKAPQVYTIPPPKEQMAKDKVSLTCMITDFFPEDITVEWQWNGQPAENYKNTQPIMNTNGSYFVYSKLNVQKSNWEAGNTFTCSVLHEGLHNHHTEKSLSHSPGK

In the experiment with human FcγR1A [1], human immunoglobulin IgG1 (antibody) displayed a Kd of 17.7 nM, an off-rate (koff) of 0.00044 s⁻¹ and a kon of 24900 M⁻¹ s⁻¹. In the experiment with neonatal receptor FcRn [2], this molecule returned a Kd of 4.87 nM, a koff of 0.0046 s⁻¹ and a kon of 945000 M⁻¹ s⁻¹.
CD172a-Fc (Fc fusion): in experiment [3], the Kd turned out to be 3.16 nM, the koff turned out to be 0.00239 s⁻¹ and the on-rate constant (kon) was 756000 M⁻¹ s⁻¹.

B1: human PD1-Fc-TL1A (Fc fusion)
chain: LDSPDRPWNPPTFSPALLVVTEGDNATFTCSFSNTSESFVLNWYRMSPSNQTDKLAAFPEDRSQPGQDCRFRVTQLPNGRDFHMSVVRARRNDSGTYLCGAISLAPKAQIKESLRAELRVTERRAEVPTAHPSPSPRPAGQFQSKYGPPCPSCPAPEFLGGPSVFLFPPKPKDTLMISRTPEVTCVVVDVSQEDPEVQFNWYVDGVEVHNAKTKPREEQFNSTYRVVSVLTVLHQDWLSGKEYKCKVSSKGLPSSIEKTISNATGQPREPQVYTLPPSQEEMTKNQVSLTCLVKGFYPSDIAVEWESNGQPENNYKTTPPVLDSDGSFFLYSRLTVDKSSWQEGNVFSCSVMHEALHNHYTQKSLSLSLGKIEGRMDRAQGEACVQFQALKGQEFAPSHQQVYAPLRADGDKPRAHLTVVRQTPTQHFKNQFPALHWEHELGLAFTKNRMNYTNKFLLIPESGDYFIYSQVTFRGMTSECSEIRQAGRPNKPDSITVVITKVTDSYPEPTQLLMGTKSVCEVGSNWFQPIYLGAMFSLQEGDKLMVNVSDISLVDYTKEDKTFFGAFLL
notes: The entry includes the native leader; no cleavage site is stated; also called hPD1-Fc-TL1A
Regarding B1, the binding result in [4] is “no binding”.

B2: recombinant mOX40 fused to human Fc (Fc fusion, mouse, UniProt P47741 20-211, looked up)
chain: VTARRLNCVKHTYPSGHKCCRECQPGHGMVSRCDHTRDTLCHPCETGFYNEAVNYDTCKQCTQCNHRSGSELKQNCTPTQDTVCRCRPGTQPRQDSGYKLGVDCVPCPPGHFSPGNNQACKPWTNCTLSGKQTRHPASDSLDAVCEDRSLLATLLWETQRPTFRPTTVQSTTVWPRTSELPSPPTLVTPEGP
notes: also called mOX40-hFc; not shown: human Fc
In the case of B2, in the experiment with mouse PD-1-Fc, the binding result was “no binding (tested: 1:1 (undiluted culture medium))”.

B3: SL-279252 (human PD-1-Fc-OX40L) (Fc fusion)
chain: LDSPDRPWNPPTFSPALLVVTEGDNATFTCSFSNTSESFVLNWYRMSPSNQTDKLAAFPEDRSQPGQDCRFRVTQLPNGRDFHMSVVRARRNDSGTYLCGAISLAPKAQIKESLRAELRVTERRAEVPTAHPSPSPRPAGQFQSKYGPPCPSCPAPEFLGGPSVFLFPPKPKDTLMISRTPEVTCVVVDVSQEDPEVQFNWYVDGVEVHNAKTKPREEQFNSTYRVVSVLTVLHQDWLSGKEYKCKVSSKGLPSSIEKTISNATGQPREPQVYTLPPSQEEMTKNQVSLTCLVKGFYPSDIAVEWESNGQPENNYKTTPPVLDSDGSFFLYSRLTVDKSSWQEGNVFSCSVMHEALHNHYTQKSLSLSLGKIEGRMDQVSHRYPRIQSIKVQFTEYKKEKGFILTSQKEDEIMKVQNNSVIINCDGFYLISLKGYFSQEVNISLHYQKDEEPLFQLKKVRSVNSLMVASLTYKDKVYLNVTTDNTSLDDFHVNGGELILIHQNPGEFCVL
notes: Glycosylated; about 50% of the non-reduced protein ran as a dimer; also called hPD-1-Fc-OX40L
Take B3: in experiment [5], the “increase in IL-2 from baseline (no SL-279252) to 5 ug/mL of SL-279252, T cell co-culture with HCC827 (PD-L1high)” value came to 1.92 fold. For the same molecule, in experiment [5], the “increase in IL-2 from baseline (no SL-279252) to 5 ug/mL of SL-279252, T cell co-culture with PC3 (PD-L1low)” value worked out at 1.27 fold. For the same molecule, the binding result with FcγR2B is “no binding”; with human FcγR1A [13] it was “no binding (tested: 500 nM)”. In addition, the Kd in the experiment with neonatal receptor FcRn [6] was found to be 73 nM; in experiment [10], 2.08 nM; in experiment [11] it was 1.24 nM; in [12], 0.246 nM; in the experiment with neonatal receptor FcRn [14] it was 9.17 nM. Further, the koff in the experiment with neonatal receptor FcRn [2] worked out at 0.00234 s⁻¹; in [7] it was 1.9e-05 s⁻¹; in experiment [8] it was 0.000176 s⁻¹; in experiment [9] it was 6.7e-05 s⁻¹. The kon in the experiment with neonatal receptor FcRn [2] worked out at 255000 M⁻¹ s⁻¹; in experiment [7] it was 77300 M⁻¹ s⁻¹; in experiment [8], 84500 M⁻¹ s⁻¹; in experiment [9] it was 54000 M⁻¹ s⁻¹. The “off-rate, fold slower than recombinant PD-1-Fc” value in experiment [10] was approximately 20 fold.

B4: recombinant human OX40L-Fc (Fc fusion, UniProt P23510 51-183, looked up)
chain: QVSHRYPRIQSIKVQFTEYKKEKGFILTSQKEDEIMKVQNNSVIINCDGFYLISLKGYFSQEVNISLHYQKDEEPLFQLKKVRSVNSLMVASLTYKDKVYLNVTTDNTSLDDFHVNGGELILIHQNPGEFCVL
notes: Positive control in SPR; not shown: Fc
B4: the Kd in [7], in experiment [15] and in experiment [16] was 9.28 nM in each case. Also, the koff in [7], in experiment [15] and in [16] was 0.00069 s⁻¹ throughout.

One may read the Kd as the concentration at which binding is half-saturated. By koff is commonly meant the rate constant with which the complex falls apart. In general, kon refers to the second-order rate constant of association.

The record behind these values is patent publication US20180326005A1 (HEAT BIOLOGICS, published 2018).
